Measurements from PMC10397247.
Read-outs that look alike come from different tables or passages of the source.

T1: 4H446-AA
T1 chain: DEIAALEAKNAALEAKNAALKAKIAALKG

T2: 4H3777-AA
T2 chain: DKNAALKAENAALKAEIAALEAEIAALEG

T3: 4H3094-AA
T3 chain: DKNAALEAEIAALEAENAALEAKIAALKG

T4: 4H432-AA
T4 chain: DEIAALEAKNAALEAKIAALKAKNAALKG

T5: 4H341-AA
T5 chain: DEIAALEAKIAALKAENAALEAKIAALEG

T6: 4H3619-AA
T6 chain: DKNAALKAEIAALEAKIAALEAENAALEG

T7: 4H3449-AA
T7 chain: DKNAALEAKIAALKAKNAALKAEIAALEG

T8: 4H3414-AA
T8 chain: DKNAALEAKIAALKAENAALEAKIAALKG

T9: 4H3629-AA
T9 chain: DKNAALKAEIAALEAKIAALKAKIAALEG

T10: 4H3915-AA
T10 chain: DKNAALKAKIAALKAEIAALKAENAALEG

T11: 4H3129-AA
T11 chain: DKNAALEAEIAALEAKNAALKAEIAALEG

T12: 4H3049-AA
T12 chain: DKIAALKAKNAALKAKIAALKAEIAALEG

T13: 4H3969-AA
T13 chain: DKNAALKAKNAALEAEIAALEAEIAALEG

T14: 4H483-AA
T14 chain: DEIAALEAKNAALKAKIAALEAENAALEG

T15: 4H2760-AA
T15 chain: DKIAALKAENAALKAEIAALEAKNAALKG

T16: 4H3974-AA
T16 chain: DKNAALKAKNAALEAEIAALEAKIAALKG

T17: 4H2699-AA
T17 chain: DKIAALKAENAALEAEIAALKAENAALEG

T18: 4H464-AA
T18 chain: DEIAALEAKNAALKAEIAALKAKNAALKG

T19: 4H63-AA
T19 chain: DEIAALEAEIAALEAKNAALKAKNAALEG

T20: 4H3595-AA
T20 chain: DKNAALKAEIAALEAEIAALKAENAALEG

T21: 4H2903-AA
T21 chain: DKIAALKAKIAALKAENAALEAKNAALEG

T22: 4H2621-AA
T22 chain: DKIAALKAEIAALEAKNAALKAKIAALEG

T23: 4H2947-AA
T23 chain: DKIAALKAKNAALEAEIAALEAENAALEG

T24: 4H3782-AA
T24 chain: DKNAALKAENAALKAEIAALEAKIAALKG

T25: 4H380-AA
T25 chain: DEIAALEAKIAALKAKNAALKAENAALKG

T26: 4H2774-AA
T26 chain: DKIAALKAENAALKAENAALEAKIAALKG

T27: 4H3939-AA
T27 chain: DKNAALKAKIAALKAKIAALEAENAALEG

T28: 4H324-AA
T28 chain: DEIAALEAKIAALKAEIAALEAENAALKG

T29: 4H2728-AA
T29 chain: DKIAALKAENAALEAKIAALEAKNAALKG

T30: 4H2961-AA
T30 chain: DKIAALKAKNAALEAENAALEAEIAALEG

B1: 4H2621-AA (peptide)
chain: DKIAALKAEIAALEAKNAALKAKIAALEG
B2: 4H2699-AA (peptide)
chain: DKIAALKAENAALEAEIAALKAENAALEG

What was measured:
Assay in all cases: two-hybrid library CCmax;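 further: natural log of median RNA to DNA barcode read ratio; higher means stronger binding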
[1] = target: T1, 4H446-AA; settings: mean of both orientations
[2] = target: T2, 4H3777-AA; settings: mean of both orientations
[3] = target: T3, 4H3094-AA; settings: mean of both orientations
[4] = target: T4, 4H432-AA; settings: mean of both orientations
[5] = target: T5, 4H341-AA; settings: mean of both orientations
[6] = target: T6, 4H3619-AA; settings: mean of both orientations
[7] = target: T7, 4H3449-AA; settings: mean of both orientations
[8] = target: T8, 4H3414-AA; settings: mean of both orientations
[9] = target: T9, 4H3629-AA; settings: mean of both orientations
[10] = target: T10, 4H3915-AA; settings: mean of both orientations
[11] = target: T11, 4H3129-AA
[12] = target: T12, 4H3049-AA; settings: mean of both orientations
[13] = target: T13, 4H3969-AA; settings: mean of both orientations
[14] = target: T14, 4H483-AA; settings: mean of both orientations
[15] = target: T15, 4H2760-AA; settings: mean of both orientations
[16] = target: T16, 4H3974-AA; settings: mean of both orientations
[17] = target: T17, 4H2699-AA
[18] = target: T18, 4H464-AA; settings: mean of both orientations
[19] = target: T19, 4H63-AA; settings: mean of both orientations
[20] = target: T20, 4H3595-AA; settings: mean of both orientations
[21] = target: T21, 4H2903-AA; settings: mean of both orientations
[22] = target: T22, 4H2621-AA
[23] = target: T23, 4H2947-AA; settings: mean of both orientations
[24] = target: T24, 4H3782-AA; settings: mean of both orientations
[25] = target: T25, 4H380-AA; settings: mean of both orientations
[26] = target: T26, 4H2774-AA; settings: mean of both orientations
[27] = target: T27, 4H3939-AA; settings: mean of both orientations
[28] = target: T28, 4H324-AA; settings: mean of both orientations
[29] = target: T29, 4H2728-AA; settings: mean of both orientations
[30] = target: T30, 4H2961-AA; settings: mean of both orientations

| Binder | interaction score [1] | interaction score [5] | interaction score [8] | interaction score [9] | interaction score [12] | interaction score [13] | interaction score [14] | interaction score [18] | interaction score [19] | interaction score [20] | interaction score [21] | interaction score [24] | interaction score [25] | interaction score [26] | interaction score [27] | interaction score [29] | interaction score [30] | further results |
| --- | --- | --- | --- | --- | --- | --- | --- | --- | --- | --- | --- | --- | --- | --- | --- | --- | --- | --- |
| B1 | -1.41 | 2.39 | 2.21 | 0.71 | 0.214 | -1.35 | -1.55 | -1.44 | -0.787 | 0.312 | 1.71 | -1.63 | -0.998 | -0.116 | -0.531 | 1.6 | -0.217 | interaction score [2]: -1.64; interaction score [3]: 1.09; interaction score [4]: -1.5; interaction score [6]: 0.162; interaction score [7]: -0.832; interaction score [10]: -1.18; interaction score [11]: -1.64; interaction score [15]: -0.432; interaction score [16]: -0.826; interaction score ([17]; mean of both orientations): -0.173; interaction score [22]: 1.1; interaction score [23]: -1.47; interaction score [28]: 1.33 |
| B2 | -1.2 | -1.58 | -0.748 | -0.9 | 0.526 | -1.41 | 0.687 | 2.17 | -1.27 | -1.96 | -1.69 | -0.882 | -1.08 | -1.26 | -1.77 | -0.707 | -1.89 | interaction score ([11]; mean of both orientations): 1.24; interaction score [17]: -1.06 |
